Experimental findings from article PMC6600395, “p53 Binds Preferentially to Non-B DNA Structures Formed by the Pyrimidine-Rich Strands of GAA·TTC Trinucleotide Repeats Associated with Friedreich’s Ataxia” are described below.

Data set [1] concerns the target T1, p53CD (core domain) (human, UniProt P04637 94-312). The data set can be described thus: EMSA; 50 ng pBSK/SmaI competitor; EMSA: 5 mM Tris-HCl pH 7.6, 0.5 mM EDTA, 0.5 mM DTT, 0.01% Triton X-100, 50 mM KCl, 15 min on ice (agarose 4 °C), pBSK/SmaI competitor in PAGE EMSA; ELISA: same without EDTA, 4 °C, 20 min. The following applies: protein: recombinant; tags: GST (GST-p53CD, pGEX-4T); chain copies: 4; label: 32P (EMSA); biotin (ELISA); blunt. For orientation: In EMSA bound probe runs differently from free probe, usually more slowly.

The target of data set [2] is T2, p53 (wild type, full length) (human, UniProt P04637 1-393). The data set can be described thus: EMSA; strongest binder; 75 ng pBSK/SmaI competitor; EMSA: 5 mM Tris-HCl pH 7.6, 0.5 mM EDTA, 0.5 mM DTT, 0.01% Triton X-100, 50 mM KCl, 15 min on ice (agarose 4 °C), pBSK/SmaI competitor in PAGE EMSA; ELISA: same without EDTA, 4 °C, 20 min. The following applies: protein: recombinant; tags: none stated for pT7-7wtp53 (Methods 3.3 says purified via GST tag); chain copies: 4; label: 32P (EMSA); biotin (ELISA); blunt.

For data set [3], the target named is p53CT (C-terminal segment) (human, UniProt P04637 320-393). Kind of data set: EMSA; 50 ng pBSK/SmaI competitor; EMSA: 5 mM Tris-HCl pH 7.6, 0.5 mM EDTA, 0.5 mM DTT, 0.01% Triton X-100, 50 mM KCl, 15 min on ice (agarose 4 °C), pBSK/SmaI competitor in PAGE EMSA; ELISA: same without EDTA, 4 °C, 20 min. The following applies: protein: recombinant, tags: GST (GST-p53CT, pGEX-2TK), chain copies: 4, label: 5'-32P on Lock-F (EMSA), 3'-biotin on Lock-F (ELISA), lock clamp, 3' overhang 3 nt on lock strand.

For data set [4], the target named is T2, p53 (wild type, full length). Kind of data set: ELISA; Kd only in figure; EMSA: 5 mM Tris-HCl pH 7.6, 0.5 mM EDTA, 0.5 mM DTT, 0.01% Triton X-100, 50 mM KCl, 15 min on ice (agarose 4 °C), pBSK/SmaI competitor in PAGE EMSA; ELISA: same without EDTA, 4 °C, 20 min. The note with it: protein: recombinant; tags: none stated for pT7-7wtp53 (Methods 3.3 says purified via GST tag); chain copies: 4; label: 5'-32P on Lock-F (EMSA); 3'-biotin on Lock-F (ELISA); lock clamp, T loop in strand 1; 3' overhang 3 nt on lock strand.

Data set [5] addresses T1, p53CD (core domain). The data set can be described thus: EMSA; no stable complex; 50 ng pBSK/SmaI; EMSA: 5 mM Tris-HCl pH 7.6, 0.5 mM EDTA, 0.5 mM DTT, 0.01% Triton X-100, 50 mM KCl, 15 min on ice (agarose 4 °C), pBSK/SmaI competitor in PAGE EMSA; ELISA: same without EDTA, 4 °C, 20 min. The note with it: protein: recombinant, tags: GST (GST-p53CD, pGEX-4T), label: 5'-32P on Lock-F (EMSA), 3'-biotin on Lock-F (ELISA), lock clamp, 3' overhang 3 nt on lock strand.

Data set [6] addresses T2, p53 (wild type, full length). The data set can be described thus: EMSA; 75 ng pBSK/SmaI competitor; EMSA: 5 mM Tris-HCl pH 7.6, 0.5 mM EDTA, 0.5 mM DTT, 0.01% Triton X-100, 50 mM KCl, 15 min on ice (agarose 4 °C), pBSK/SmaI competitor in PAGE EMSA; ELISA: same without EDTA, 4 °C, 20 min. The following applies: protein: recombinant, tags: none stated for pT7-7wtp53 (Methods 3.3 says purified via GST tag), chain copies: 4, label: 5'-32P on Lock-F (EMSA), 3'-biotin on Lock-F (ELISA), lock clamp, 3' overhang 3 nt on lock strand.

The target is the same in data set [7]. Kind of data set: EMSA; stronger than TTCNB and FXN-ANB; 50 ng pBSK/SmaI; EMSA: 5 mM Tris-HCl pH 7.6, 0.5 mM EDTA, 0.5 mM DTT, 0.01% Triton X-100, 50 mM KCl, 15 min on ice (agarose 4 °C), pBSK/SmaI competitor in PAGE EMSA; ELISA: same without EDTA, 4 °C, 20 min. The following applies: protein: recombinant; tags: none stated for pT7-7wtp53 (Methods 3.3 says purified via GST tag); chain copies: 4; label: 5'-32P on Lock-F; lock clamp, Py-rich loop in strand 1; 3' overhang 3 nt on lock strand.

Where [8] appears, read: unpaired (TTC)11 loop in strand 1.

T2 sequence (P04637 whole entry): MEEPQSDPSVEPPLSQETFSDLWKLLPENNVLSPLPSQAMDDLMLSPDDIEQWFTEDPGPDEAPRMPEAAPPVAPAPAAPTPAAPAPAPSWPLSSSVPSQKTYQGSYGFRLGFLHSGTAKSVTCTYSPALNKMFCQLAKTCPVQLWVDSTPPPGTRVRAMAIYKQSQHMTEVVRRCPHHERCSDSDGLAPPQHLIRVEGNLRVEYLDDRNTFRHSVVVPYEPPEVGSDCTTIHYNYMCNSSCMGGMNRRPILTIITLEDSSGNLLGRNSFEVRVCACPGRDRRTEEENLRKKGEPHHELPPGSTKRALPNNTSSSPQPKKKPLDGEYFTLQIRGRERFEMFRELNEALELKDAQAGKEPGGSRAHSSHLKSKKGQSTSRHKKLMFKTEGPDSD
T1 sequence (P04637 94-312): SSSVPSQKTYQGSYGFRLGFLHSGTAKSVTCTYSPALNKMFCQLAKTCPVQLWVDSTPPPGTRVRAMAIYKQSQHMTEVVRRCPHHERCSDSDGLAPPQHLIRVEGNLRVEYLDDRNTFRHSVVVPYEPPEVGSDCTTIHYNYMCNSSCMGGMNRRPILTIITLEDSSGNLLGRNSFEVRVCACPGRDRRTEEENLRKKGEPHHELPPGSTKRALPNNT
Chain of p53CT (C-terminal segment) (P04637 320-393): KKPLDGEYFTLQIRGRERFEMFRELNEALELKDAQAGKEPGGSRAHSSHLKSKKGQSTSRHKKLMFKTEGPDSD

B1: CON (p53CON) (dsDNA)
DNA 1: GACGGTATCGATAAGAGACATGCCTAGACATGCCTCTTGATATCGAATTC
DNA 2: GAATTCGATATCAAGAGGCATGTCTAGGCATGTCTCTTATCGATACCGTC
In the case of B1, the binding result (with p53CD (core domain) [1]; in data set [2]) was “binds” each time.

B2: TNB (structured_DNA)
DNA 1: GGGGCCTTAGGTATTTTTTTTTTTTTTTTTTTTTTTTTTTTTTTTTATGGTACCGCGG
DNA 2: CCGCGGTACCATTACCTAAGGCCCCAAC
As to B2, the binding result was “binds” in data set [3] (T loop in strand 1), “binds” in data set [4] and “no binding” with p53CD (core domain) [5] (T loop in strand 1).

B3: CTGNB (structured_DNA)
DNA 1: GGGGCCTTAGGTACTGCTGCTGCTGCTGCTGCTGCTGCTGCTGCTGATGGTACCGCGG
DNA 2: CCGCGGTACCATTACCTAAGGCCCCAAC
For the molecule B3, the binding result in data set [3] ((CTG)11 hairpin in strand 1) is on record as “binds”; with p53CD (core domain) [5] ((CTG)11 hairpin in strand 1), “no binding”; in data set [6] ((CTG)11 hairpin in strand 1), “binds”.

B4: TTCNB (structured_DNA)
DNA 1: GGGGCCTTAGGTATTCTTCTTCTTCTTCTTCTTCTTCTTCTTCTTCATGGTACCGCGG
DNA 2: CCGCGGTACCATTACCTAAGGCCCCAAC
As to B4, the values for the binding result (in data set [3] (setting [8]); in the data set with p53CD (core domain) [5] (setting [8]); in data set [6] (setting [8])) were “binds”, “no binding” and “binds”, respectively.

B5: FXN-TNB (structured_DNA)
DNA 1: GGGGCCTTAGGTATTTTCTTTATTTTCTTCTTCTTCTTCTTCTTTTTTTTTTTTTTTTGTATTTTTTATGGTACCGCGG
DNA 2: CCGCGGTACCATTACCTAAGGCCCCAAC
As to B5, in data set [7], the binding result is listed as “binds”.
